Test results published in patent US20040023313A1 (Amgen, published 2004).

T1: E. coli mouse OPGL (mOPGL) 158 (mouse, UniProt O35235 158-316)
T1 construct: kept apart
T1 sequence (looked up): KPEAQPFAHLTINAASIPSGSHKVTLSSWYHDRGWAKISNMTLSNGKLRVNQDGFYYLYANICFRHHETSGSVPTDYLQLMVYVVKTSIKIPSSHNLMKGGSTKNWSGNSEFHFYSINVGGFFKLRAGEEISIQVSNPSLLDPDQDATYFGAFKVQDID

T2: Murine OPGL [158-316] (murine, UniProt O35235 158-316)
T2 sequence: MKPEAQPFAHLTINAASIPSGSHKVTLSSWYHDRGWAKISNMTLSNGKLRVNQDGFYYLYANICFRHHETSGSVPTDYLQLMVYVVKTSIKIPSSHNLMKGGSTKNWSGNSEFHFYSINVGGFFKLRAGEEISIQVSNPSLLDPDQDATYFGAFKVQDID

T3: OPGL used in the RAW 264.7 osteoclast formation assay (Example 6) (human, UniProt O14788 143-317, limits assumed)
T3 sequence (looked up): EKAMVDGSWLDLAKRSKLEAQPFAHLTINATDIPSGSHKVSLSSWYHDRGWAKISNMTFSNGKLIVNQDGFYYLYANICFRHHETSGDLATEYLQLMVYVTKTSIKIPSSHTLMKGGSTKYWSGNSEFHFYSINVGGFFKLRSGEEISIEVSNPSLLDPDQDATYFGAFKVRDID

T4: CHO human OPGL (hOPGL) 140 (human, UniProt O14788 140-317)
T4 construct: also called CHO hOPGL 140
T4 sequence (looked up): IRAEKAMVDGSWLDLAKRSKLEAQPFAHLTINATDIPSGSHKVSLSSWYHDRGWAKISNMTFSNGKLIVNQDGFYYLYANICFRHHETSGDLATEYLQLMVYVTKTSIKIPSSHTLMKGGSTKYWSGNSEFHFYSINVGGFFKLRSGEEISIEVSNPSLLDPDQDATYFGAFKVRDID


Assays:
[1] = biological target: T1, E. coli mouse OPGL (mOPGL) 158; experiment: SPR (BIAcore 2000), antibody captured on Protein G, mOPGL 158 in solution
Procedure: (§1) All experiments were performed on a BlAcore 2000 according to the manufacturer's instructions, with the following modifications. Experiments were performed at room temperature using a running buffer containing 10 mM Hepes (pH 7.4), 0.15M NaCl, 3 mM EDTA, and 0.005% Tween 20. Protein G at 50 μg/mL in 10 mM acetate pH 4.5 was immobilized to a level of 1,600 response units (RU) onto a CM5 Research grade sensor chip (BlAcore, Inc.). Antibodies (8-20 μg/mL) were captured onto the Protein G chip at a level of 300-400 RUs. […] Langmuir 1:1 model was used to determine binding kinetics. Protein G immobilized to 1600 RUs was used as a blank surface. A mouse monoclonal antibody was used as a positive control to show binding to hOPGL 140 and to monitor surface stability.

Murine OPGL [158-316] = biological target: T2, Murine OPGL [158-316]; experiment: ELISA: plate coated with murine OPGL[158-316] at 3 µg/mL, antibody titrated 1.95-2000 ng/ml, goat anti-human IgG (Fc) detection, ABTS, OD405
Procedure: (§2) After overnight incubation, the protein solutions were removed from the plate and 200 μL of 5% Chicken Serum (Gibco/BRL Cat# 16110-082) in PBST (PBS plus 0.05% Tween 20) was added to each well of the plate and plates were incubated at room temperature (RT) for 3 hours with agitation. After incubation and blocking, plates were washed 4 times with 1× K-P wash solution in dH₂O (Cat# 50-63-00, Kirkegaard & Perry Laboratories) and dried. […] Plates were incubated for 2.25 hours at room temperature with agitation, washed four times with 1× K-P wash solution and dried. Goat anti-human IgG (Fc) (Jackson ImmunoResearch, Cat# 109-036-098) was diluted 1:3000 in 5% Chicken Serum in PBST and 100 μL was added to each well. […] 100 μL of undiluted ABTS substrate (Kirkegaard & Perry; Cat# 50-66-00) was added to each well and the dish was incubated at room temperature until sufficient blue-green color developed. Color development was stopped by addition of 100 μL 1% SDS. Quantitation of color development was performed using a microtiter plate reader with detection at 405 nm.

[2] = biological target: T3, OPGL used in the RAW 264.7 osteoclast …; experiment: cell-based or functional assay
[3] = biological target: T5, FLAG-murine OPGL [158-316]/DE (murine, UniProt O35235 158-316); experiment: ELISA: plate coated with FLAG-murine OPGL[158-316]/DE at 3 µg/mL, antibody titrated 1.95-2000 ng/ml, goat anti-human IgG (Fc) detection, ABTS, OD405
T5 construct: The same paragraph also prints the changes as S231D, V232L, P233A and D235E (T234 unchanged), a numbering two higher than the 229-233 it gives first
Procedure: as §2

[4] = biological target: T4, CHO human OPGL (hOPGL) 140; experiment: SPR (BIAcore 2000), antibody captured on Protein G, hOPGL 140 in solution 0.25-62 nM, Langmuir 1:1
Procedure: as §1

Row | binding result [1] | binding result (Murine OPGL [158-316]) | IC50 (ng/mL), inhibition of OPGL-driven osteoclast formation of RAW 264.7 cells (TRAP activity, OD 405 nM) [2] | EC50 (read off the curve) [3] | koff [4] | kon [4] | off rate half life t½ [4] | binding result [3] | Binder
1 | no binding (tested: 0.25-62 nM) | no binding (tested: 2000 ng/ml) | 129 ng/mL |  |  |  |  |  | 9H7 anti-OPGL antibody (antibody, V domains shown, Fully human IgG1 kappa from HuMab mice; also called 9H7 anti-OPGL MAb) VH: EVQLVQSGGGLVHPGGSLRLSCEGSGFTFSSNGMHWVRQTPGKGLEWVSGIGTAGGTYYADSVKGRFTISRDNVKKSLYLQMNSLRAEDMAIYYCVRKDWGWFDPWGQGALVTVSS VL: EIVLTQSPATLSLSPGERATLSCRASQSISSYLAWYQQKPGQAPRLLIYDASNRATGIPARFSGSGSGTDFTLTISSLEPEDFAVYYCQQRSKWPPYTFGQGTKLEIKR
2 | no binding (tested: 0.25-62 nM) | no binding (tested: 2000 ng/ml) | 352 ng/mL | ~0.01 µg/mL | 0.000137 s⁻¹ | 2.16e+06 M⁻¹ s⁻¹ | 1.41 h |  | 16E1 anti-OPGL antibody (antibody, V domains shown, Fully human IgG1 kappa from HuMab mice) VH: EVQLVQSGGGLVHPGGSLRLSCAGSGFTFSGHALHWVRQAPGKGLEWVSGIGTHGGTYYADSVKGRFTISRDNAKNSLFLQMNSLSAEDMAVYYCTRRNWGQFDYWGQGTLVTVSS VL: EIVLTQSPATLSLSPGERATLSCRASQSVSSYLAWYQQKPGQAPRLLIYDASNRATGIPARFSGSGSGTDFTLTISSLEPEDFAVYYCQQRSNWPPYTFGQGTKLEIKR
3 |  |  | 146 ng/mL | ~0.009 µg/mL | 6.39e-05 s⁻¹ | 1.9e+06 M⁻¹ s⁻¹ | 3.01 h |  | 22B3 anti-OPGL antibody (antibody, human IgG1, kappa, V domains shown, Fully human IgG1 kappa from HuMab mice) VH: EVQLVQSGGGLVHPGGSLRLSCEGSGFTFSSNGMHWVRQTPGKGLEWVSGIGTAGGTYYADSVKGRFTISRDNVKKSLYLQMNSLRAEDMAIYYCVRKNWGWFDPWGQGALVTVSS VL: EIVLTQSPATLSLSPGERATLSCRASQSVNSYLAWFQQKPGQAPRLLIYDASNRATGIPARFSGSGSGTDFTLTISSLEPEDFAIYYCQQRSNWPPFTFGQGTKLEIKR
4 | no binding (tested: 0.25-62 nM) | no binding (tested: 2000 ng/ml) | 611 ng/mL |  |  |  |  |  | 2D8 anti-OPGL antibody (antibody, V domains shown, Fully human IgG1 kappa from HuMab mice) VH: EVQLVQSGGGLVHPGGSLRLSCAGSGFTFSSYGMHWVRQAPGKGLEWVSGIGTGGGTYYADSVKGRFTISRDNVKNSLYLQMNSLRAEDMAVYYCARKNWGWFDYWGQGTLVTVSS VL: EIVLTQSPATLSLSPGERATLSCRASQSISSYLAWYQQKPGQAPRLLIYDASNRATGIPARFSGSGSGTDFTLTISSLEPEDFAVYYCQQRSKWPPYTFGQGTKLEIKR
5 | no binding (tested: 0.25-62 nM) | no binding (tested: 2000 ng/ml) | 80 ng/mL |  | 0.000186 s⁻¹ | 878000 M⁻¹ s⁻¹ | 1.03 h |  | 18B2 anti-OPGL antibody (antibody, V domains shown, Fully human IgG1 kappa from HuMab mice) VH: EVQLVQSGGGLVHPGGSLRLSCVGSRFTFSAYPMHWVRQAPGKGLEWVSGIGSGGGTNYADSVKGRFTISRDTAKNSLYLQMNSLRAEDMAVYYCARGRNSFDYWGQGTLVTVSS VL: DIQMTQSPSSLSASVGDRVTITCRASQGISTWLAWYQQKPEKAPKSLIYAASSLQSGVPSRFSGSGSGTDFTLTISSLQPEDFATYYCQQYNSYPPTFGQGTKVEIKR
6 | no binding (tested: 0.25-62 nM) | no binding (tested: 2000 ng/ml) | 77 ng/mL |  | 0.000132 s⁻¹ | 453000 M⁻¹ s⁻¹ | 1.46 h | no binding (tested: 2000 ng/ml) | 2E11 anti-OPGL antibody (antibody, V domains shown, Fully human IgG1 kappa from HuMab mice; also called 2 µl 1) VH: EVQLVQSGGDLVHPGGSLRLSCVGSGFTFSHYPLHWVRQAPGKGLEWISGIHTGGGTYYTDSVKGRFTISSDNAKNSLYLQMNTLRAEDMAVYYCARGRNSFDYWGQGTLVIVSS VL: DIQMTQSPSSLSASVGDRVTITCRASQGISSWLAWYQQKPEKAPKSLIYAASSLQSGVPSRFSGSGSGTDFTLTISSLQSEDFATYYCQQYNSYPPTFGQGTRLEIKR
